Results published in patent publication US20240343771A1.

Legend:
[1] = biological target: IL-12 receptor (human IL-12Rb1 and IL-12Rb2 on IL-12 bioassay cells) (human) (UniProt P42701)
[2] = biological target: IL-12 receptor (human IL-12Rb1 and IL-12Rb2 on IL-12 bioassay cells) (human) (UniProt P42701); remark: listed apart in the source
[3] = biological target: IL-12 receptor (human IL-12Rb1 and IL-12Rb2 on IL-12 bioassay cells) (human) (UniProt P42701); remark: listed apart in the source
[4] = biological target: IL-12 receptor (human IL-12Rb1 and IL-12Rb2 on IL-12 bioassay cells) (human) (UniProt P42701); remark: listed apart in the source

Chain of IL-12 receptor (human IL-12Rb1 and IL-12Rb2 on IL-12 bioassay cells) (human) (Q99665 24-862, chain 2 of 2, other chains not shown): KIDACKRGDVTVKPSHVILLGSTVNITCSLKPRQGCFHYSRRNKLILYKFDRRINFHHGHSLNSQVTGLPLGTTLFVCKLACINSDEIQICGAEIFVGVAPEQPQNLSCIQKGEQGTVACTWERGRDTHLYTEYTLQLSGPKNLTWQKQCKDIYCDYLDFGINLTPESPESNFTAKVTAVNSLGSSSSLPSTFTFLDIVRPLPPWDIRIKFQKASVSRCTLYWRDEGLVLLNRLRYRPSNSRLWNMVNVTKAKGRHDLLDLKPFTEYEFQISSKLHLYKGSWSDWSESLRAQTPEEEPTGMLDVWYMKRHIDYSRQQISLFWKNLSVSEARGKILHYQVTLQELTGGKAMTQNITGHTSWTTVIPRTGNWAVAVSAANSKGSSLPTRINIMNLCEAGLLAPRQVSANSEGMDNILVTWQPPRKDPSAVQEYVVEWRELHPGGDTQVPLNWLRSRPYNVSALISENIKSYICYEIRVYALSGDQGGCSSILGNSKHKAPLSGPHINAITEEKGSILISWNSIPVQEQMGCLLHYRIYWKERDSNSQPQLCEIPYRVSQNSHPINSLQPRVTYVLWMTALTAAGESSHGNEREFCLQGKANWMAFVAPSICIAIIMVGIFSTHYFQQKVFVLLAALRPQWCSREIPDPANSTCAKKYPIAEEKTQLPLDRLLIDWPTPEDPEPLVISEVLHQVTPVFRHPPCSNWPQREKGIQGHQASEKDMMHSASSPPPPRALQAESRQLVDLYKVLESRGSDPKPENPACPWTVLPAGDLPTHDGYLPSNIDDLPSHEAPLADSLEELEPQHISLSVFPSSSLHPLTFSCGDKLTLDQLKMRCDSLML
Chain of hIL12 + MTSP1 (P29459 23-219): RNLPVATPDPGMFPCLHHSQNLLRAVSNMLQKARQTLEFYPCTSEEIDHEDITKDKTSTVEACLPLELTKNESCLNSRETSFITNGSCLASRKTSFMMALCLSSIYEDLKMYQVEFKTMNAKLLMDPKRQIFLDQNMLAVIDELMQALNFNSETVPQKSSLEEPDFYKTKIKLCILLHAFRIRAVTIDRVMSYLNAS
Chain of hIL12 + MTSP1 (P29460 23-328): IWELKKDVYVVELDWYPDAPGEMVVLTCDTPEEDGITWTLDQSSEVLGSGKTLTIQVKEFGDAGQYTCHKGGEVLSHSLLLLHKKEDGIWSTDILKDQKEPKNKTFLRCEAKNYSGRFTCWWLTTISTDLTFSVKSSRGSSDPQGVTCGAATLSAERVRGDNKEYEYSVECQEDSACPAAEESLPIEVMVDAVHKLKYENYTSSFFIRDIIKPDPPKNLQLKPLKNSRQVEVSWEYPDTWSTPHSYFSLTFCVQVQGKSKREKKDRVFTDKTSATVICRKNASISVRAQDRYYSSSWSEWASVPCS

Substance: hIL12 + MTSP1 (from UniProt P29459;P29460) (ligand)
- EC50 (read off the curve) (luciferase activity, AU; the assay is not described for this figure) [1]: 300 pM

Substance: hIL12_His tag + MTSP1 (ligand)
- EC50 (read off the curve) (luciferase reporter in IL-12 bioassay cells expressing human IL-12Rb1, IL-12Rb2 and STAT4) [2]: 200 pM
- EC50 (read off the curve) (luciferase reporter in IL-12 bioassay cells expressing human IL-12Rb1, IL-12Rb2 and STAT4) [all three graphs] [3]: 200 pM

Substance: hIL12_His tag (ligand)
- EC50 (read off the curve) (luciferase reporter in IL-12 bioassay cells expressing human IL-12Rb1, IL-12Rb2 and STAT4) [2]: 200 pM
- EC50 (read off the curve) (luciferase reporter in IL-12 bioassay cells expressing human IL-12Rb1, IL-12Rb2 and STAT4) [left graph] [4]: 100 pM
- EC50 (read off the curve) (luciferase reporter in IL-12 bioassay cells expressing human IL-12Rb1, IL-12Rb2 and STAT4) [all three graphs] [3]: 200 pM
